Laboratory results reported in patent publication US20020127657A1 (Dana-Farber, published 2002).

T1: CD2 binding protein 2 (CD2BP2) (human, UniProt O95400 1-341, limits assumed)
T1 construct: CD2BP2 as used in the yeast two-hybrid tests against CD2 derivatives (vector pJG4-5)
T1 sequence: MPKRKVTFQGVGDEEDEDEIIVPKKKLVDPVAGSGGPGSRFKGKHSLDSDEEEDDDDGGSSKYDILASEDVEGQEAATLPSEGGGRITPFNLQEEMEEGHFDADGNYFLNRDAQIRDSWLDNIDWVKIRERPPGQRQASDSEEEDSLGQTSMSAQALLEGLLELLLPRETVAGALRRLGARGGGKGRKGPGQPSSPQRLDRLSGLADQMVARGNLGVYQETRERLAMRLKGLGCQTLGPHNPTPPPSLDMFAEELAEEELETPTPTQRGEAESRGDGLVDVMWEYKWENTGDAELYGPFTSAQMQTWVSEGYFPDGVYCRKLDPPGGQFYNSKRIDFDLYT

T2: CD2BP2225-341 (yeast two-hybrid clone) (human, UniProt O95400 225-341)
T2 construct: Yeast two-hybrid prey in pJG4-5; vector fusion part not described
T2 sequence: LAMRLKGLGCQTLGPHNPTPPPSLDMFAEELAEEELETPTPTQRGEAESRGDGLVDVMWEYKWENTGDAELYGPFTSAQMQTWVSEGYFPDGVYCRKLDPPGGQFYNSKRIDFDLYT

T3: CD2BP2129-287 (human, UniProt O95400 129-287)
T3 construct: Yeast two-hybrid prey; vector fusion part not described
T3 sequence: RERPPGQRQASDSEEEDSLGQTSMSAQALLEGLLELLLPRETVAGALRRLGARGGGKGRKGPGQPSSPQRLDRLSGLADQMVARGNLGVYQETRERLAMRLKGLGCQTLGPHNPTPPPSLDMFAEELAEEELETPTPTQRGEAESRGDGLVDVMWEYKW

T4: CD2BP2129-254 (human, UniProt O95400 129-254)
T4 construct: Yeast two-hybrid prey; vector fusion part not described
T4 sequence: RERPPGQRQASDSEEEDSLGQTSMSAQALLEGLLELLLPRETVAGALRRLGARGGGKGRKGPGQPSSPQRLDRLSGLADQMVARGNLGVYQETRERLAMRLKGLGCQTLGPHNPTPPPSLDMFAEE

B1: CD2 cytoplasmic region (CD2221-327) (receptor, human, UniProt P06729 245-351, looked up)
chain: NDEELETRAHRVATEERGRKPHQIPASTPQNPATSQHPPPPPGHRSQAPSHRPPPPGHRVQHQPQKRPPAPSGTQVHQQKGPPLPRPRVQPKPPHGAAENSLSPSSN
notes: range 221-327; Yeast two-hybrid bait expressed from vector pEG202; also called CD2 cytoplasmic tail; human CD2 cytoplasmic segment amino acids 221-327

Legend:
[1] = molecular target: B1; assay: yeast two-hybrid
Text: (§1) The yeast hybrid system interaction trap was used as described (Finley and Brent, Interaction Trap Cloning with Yeast (Oxford Univ. Press), NY (1995)). In brief, as bait, a human CD2 cDNA encoding the cytoplasmic segment amino acids 221-327 was transferred into the pEG202 vector. cDNAs from an activated human T cell cDNA library, CD2 binding protein 2 (CD2BP2), or mutant cDNA variants of CD2BP2 were introduced into the pJG4-5 vector between EcoRI and Xho1 restriction sites. Mutations were created by a previously described method (Higuchi et al., Nucleic Acids Res. 16:7351-7367 (1988)), and were confirmed by DNA sequencing. Both of the yeast shuttle vectors were introduced into the yeast strain EGY48, were plated onto selection plates containing glucose, and were incubated at 30° C. After 48 hours greater than 100 colonies were mixed, were transferred onto a plate containing galactose/raffinose and 5-bromo-4-chloro-3-indolyl-D-galactoside, and were incubated for 48 hours at 30° C. followed by 5 days at 8° C. The strength of the interaction was scored based on the time point when the blue color appeared in comparison with a negative control: ++++, <6 hours; +++, 12 hours: ++, <24 hours; +, <48 hours; ±, <72 hours; and −, >72 hours. CD2 mutations were generated and analyzed in a similar manner.

[2] = molecular target: T5, human CD4 (human, UniProt P01730 26-458); assay: co-immunoprecipitation from cotransfected COS7 cells, anti-FLAG Western blot
T5 construct: whole, on cells; Control in the COS7 co-immunoprecipitation; tested in cell lysate
Procedure: COS7 cells were transfected with FLAG-CD2BP2 cDNA (lane 1), with FLAG-CD2BP2 and a human CD2 cDNA (lanes 2 and 3), or with FLAG-CD2BP2 and a human CD4 cDNA (lanes 4 and 5), then were lysed and immunoprecipitated with the anti-FLAG mAb M2 (lanes 3 and 5), with anti-CD2 mAb (anti-T11₁)(lanes 1 and 2), or with anti-CD4 mAb (19Thy5D7) (lane 4). Subsequently, the amount of FLAG-CD2BP2 in the immunoprecipitates was assayed by anti-FLAG mAb M2 Western blotting.
To determine whether CD2BP2 associates specifically with CD2, COS7 cells were cotransfected with FLAG-CD2BP2 and CD2 cDNA, or, as a control, CD4 cDNA. Subsequently, the CD2 protein was immunoprecipitated with anti-CD2 mAb and association with CD2BP2 examined by Western blotting with anti-FLAG mAb. […] The amount of CD2BP2 associated with CD2, however, is only a fraction of the CD2BP2 protein expressed in the COS7 cells.
As the vectors for transfection, pcDNA1.1 and pcDNA3.1 (Invitrogen) were used with COS7 and with Jurkat cells, respectively. For expression of CD2 and CD4 in COS7 cells, a pCDM8 plasmid containing each was used (Sakiharna et al, Proc. Natl. Acad. Sci. USA 92:6444-6448 (1995); Li et al., J. Mol. Biol. 263:209-226 (1996)). […]

[3] = molecular target: T1, CD2 binding protein 2 (CD2BP2); assay: yeast two-hybrid
Text: as §1

[4] = molecular target: T2, CD2BP2225-341 (yeast two-hybrid clone); assay: yeast two-hybrid
Text: as §1

[5] = molecular target: T3, CD2BP2129-287; assay: yeast two-hybrid
Text: as §1

[6] = molecular target: T4, CD2BP2129-254; assay: yeast two-hybrid
Text: as §1

| binding result [1] | Binder | other results |
| --- | --- | --- |
| binds | CD2BP2256-341 (yeast two-hybrid clone) (other, Yeast two-hybrid prey in pJG4-5; vector fusion part not described; also called shortest functional clone) AEEELETPTPTQRGEAESRGDGLVDVMWEYKWENTGDAELYGPFTSAQMQTWVSEGYFPDGVYCRKLDPPGGQFYNSKRIDFDLYT |  |
| no binding | CD2BP2 W307A (other, Yeast two-hybrid prey) AEEELETPTPTQRGEAESRGDGLVDVMWEYKWENTGDAELYGPFTSAQMQTAVSEGYFPDGVYCRKLDPPGGQFYNSKRIDFDLYT |  |
| no binding | CD2BP2 G311A (other, Yeast two-hybrid prey) AEEELETPTPTQRGEAESRGDGLVDVMWEYKWENTGDAELYGPFTSAQMQTWVSEAYFPDGVYCRKLDPPGGQFYNSKRIDFDLYT |  |
| no binding | CD2BP2 F313A (other, Yeast two-hybrid prey) AEEELETPTPTQRGEAESRGDGLVDVMWEYKWENTGDAELYGPFTSAQMQTWVSEGYAPDGVYCRKLDPPGGQFYNSKRIDFDLYT |  |
| no binding | CD2BP2 Y312A (other, Yeast two-hybrid prey) AEEELETPTPTQRGEAESRGDGLVDVMWEYKWENTGDAELYGPFTSAQMQTWVSEGAFPDGVYCRKLDPPGGQFYNSKRIDFDLYT |  |
|  | FLAG-CD2BP2 (other, Expressed in COS7 (pcDNA1.1) and Jurkat J77 (pcDNA3.1) cells and tested from cell lysates; also called full length FLAG-CD2BP2 construct) DYKDDDDKMPKRKVTFQGVGDEEDEDEIIVPKKKLVDPVAGSGGPGSRFKGKHSLDSDEEEDDDDGGSSKYDILASEDVEGQEAATLPSEGGGRITPFNLQEEMEEGHFDADGNYFLNRDAQIRDSWLDNIDWVKIRERPPGQRQASDSEEEDSLGQTSMSAQALLEGLLELLLPRETVAGALRRLGARGGGKGRKGPGQPSSPQRLDRLSGLADQMVARGNLGVYQETRERLAMRLKGLGCQTLGPHNPTPPPSLDMFAEELAEEELETPTPTQRGEAESRGDGLVDVMWEYKWENTGDAELYGPFTSAQMQTWVSEGYFPDGVYCRKLDPPGGQFYNSKRIDFDLYT | binding result [2]: no binding |
| no binding | CD2BP2256-332 (other, Yeast two-hybrid prey; vector fusion part not described; also called nine-residue truncation) AEEELETPTPTQRGEAESRGDGLVDVMWEYKWENTGDAELYGPFTSAQMQTWVSEGYFPDGVYCRKLDPPGGQFYNS |  |
|  | CD2221-271 (receptor, human, UniProt P06729 245-295, looked up, range 221-271; CD2 cytoplasmic tail truncation mutant for yeast two-hybrid analysis; vector fusion part not described) NDEELETRAHRVATEERGRKPHQIPASTPQNPATSQHPPPPPGHRSQAPSH | binding result [3]: no binding |
| no binding | CD2BP2256-341Δ297-313 (other, Yeast two-hybrid prey; vector fusion part not described; also called deletion clone lacking those 17 residues) AEEELETPTPTQRGEAESRGDGLVDVMWEYKWENTGDAELYPDGVYCRKLDPPGGQFYNSKRIDFDLYT |  |
|  | B1 | binding result [4]: binds; binding result [5]: no binding; binding result [6]: no binding |
